Key:
[1] = biological target: Chorionic Gonadotropin (CG) (UniProt P01215); test: FRET quenching titration in solution: BHQ-10-labelled antibody, Alexa-Fluor 488-labelled antigen
[2] = biological target: Follicle Stimulating Hormone (FSH) (UniProt P01215); test: as above
Luteinizing Hormone (LH) [3] = biological target: Luteinizing Hormone (LH) (UniProt P01215); test: as above
[4] = biological target: Thyroid Stimulating Hormone (TSH) (UniProt P01215); test: as above
[5] = biological target: Thyroid Stimulating Hormone (TSH) (UniProt P01215); test: i-STAT sandwich immunoassay, recombinant TSH; row antibody on capture beads; detection ALP conjugate: M4
[6] = biological target: Thyroid Stimulating Hormone (TSH) (UniProt P01215); test: i-STAT sandwich immunoassay, recombinant TSH; row antibody on capture beads; detection ALP conjugate: 414B
[7] = biological target: Thyroid Stimulating Hormone (TSH) (UniProt P01215); test: i-STAT sandwich immunoassay, recombinant TSH; row antibody on capture beads; detection ALP conjugate: 5409
[8] = biological target: Thyroid Stimulating Hormone (TSH) (UniProt P01215); test: i-STAT sandwich immunoassay, recombinant TSH; row antibody on capture beads; detection ALP conjugate: ME130
[9] = biological target: Thyroid Stimulating Hormone (TSH) (UniProt P01215); test: i-STAT sandwich immunoassay, recombinant TSH; row antibody on capture beads; detection ALP conjugate: TSH Ab 544
[10] = biological target: Chorionic Gonadotropin (CG) (UniProt P01215); test: i-STAT sandwich, 0.4 mIU/L TSH spiked with CG, signal increase over TSH alone; capture: row antibody; detection conjugate: 5409
Luteinizing Hormone (LH) [11] = biological target: Luteinizing Hormone (LH) (UniProt P01215); test: i-STAT sandwich, 0.4 mIU/L TSH spiked with LH, signal increase over TSH alone; capture: row antibody; detection conjugate: 5409
[12] = biological target: Thyroid Stimulating Hormone (TSH) (UniProt P01215); test: FRET competition on Alexa-488-labelled antigen (taken as TSH); excess unlabelled antibody first; competitor: BHQ-labelled M4
[13] = biological target: Follicle Stimulating Hormone (FSH) (UniProt P01215); test: i-STAT sandwich, 0.4 mIU/L TSH spiked with FSH, signal increase over TSH alone; capture: row antibody; detection conjugate: 5409
[14] = biological target: Thyroid Stimulating Hormone (TSH) (UniProt P01215); test: FRET competition on Alexa-488-labelled antigen (taken as TSH); excess unlabelled antibody first; competitor: BHQ-labelled 414B
[15] = biological target: Thyroid Stimulating Hormone (TSH) (UniProt P01215); test: FRET competition on Alexa-488-labelled antigen (taken as TSH); excess unlabelled antibody first; competitor: BHQ-labelled 5409
[16] = biological target: Thyroid Stimulating Hormone (TSH) (UniProt P01215); test: FRET competition on Alexa-488-labelled antigen (taken as TSH); excess unlabelled antibody first; competitor: BHQ-labelled T25C
[17] = biological target: Thyroid Stimulating Hormone (TSH) (UniProt P01215); test: FRET competition on Alexa-488-labelled antigen (taken as TSH); excess unlabelled antibody first; competitor: BHQ-labelled ME130
[18] = biological target: Thyroid Stimulating Hormone (TSH) (UniProt P01215); test: FRET competition on Alexa-488-labelled antigen (taken as TSH); excess unlabelled antibody first; competitor: BHQ-labelled TSH Ab 544
[19] = biological target: Thyroid Stimulating Hormone (TSH) (UniProt P01215); test: i-STAT sandwich immunoassay, recombinant TSH; row antibody on capture beads; detection ALP conjugate: T25C
[20] = biological target: Chorionic Gonadotropin (CG) (UniProt P01215); test: i-STAT sandwich, 0.4 mIU/L TSH spiked with CG, signal increase over TSH alone; capture: row antibody; detection conjugate: 414B
Luteinizing Hormone (LH) [21] = biological target: Luteinizing Hormone (LH) (UniProt P01215); test: i-STAT sandwich, 0.4 mIU/L TSH spiked with LH, signal increase over TSH alone; capture: row antibody; detection conjugate: 414B
[22] = biological target: Follicle Stimulating Hormone (FSH) (UniProt P01215); test: i-STAT sandwich, 0.4 mIU/L TSH spiked with FSH, signal increase over TSH alone; capture: row antibody; detection conjugate: 414B
[23] = biological target: Chorionic Gonadotropin (CG) (UniProt P01215); test: i-STAT sandwich, 0.4 mIU/L TSH spiked with CG, signal increase over TSH alone; capture: row antibody; detection conjugate: TSH Ab 544
Luteinizing Hormone (LH) [24] = biological target: Luteinizing Hormone (LH) (UniProt P01215); test: i-STAT sandwich, 0.4 mIU/L TSH spiked with LH, signal increase over TSH alone; capture: row antibody; detection conjugate: TSH Ab 544
[25] = biological target: Follicle Stimulating Hormone (FSH) (UniProt P01215); test: i-STAT sandwich, 0.4 mIU/L TSH spiked with FSH, signal increase over TSH alone; capture: row antibody; detection conjugate: TSH Ab 544
[26] = biological target: Chorionic Gonadotropin (CG) (UniProt P01215); test: i-STAT sandwich, 0.4 mIU/L TSH spiked with CG, signal increase over TSH alone; capture: row antibody; detection conjugate: T25C
Luteinizing Hormone (LH) [27] = biological target: Luteinizing Hormone (LH) (UniProt P01215); test: i-STAT sandwich, 0.4 mIU/L TSH spiked with LH, signal increase over TSH alone; capture: row antibody; detection conjugate: T25C
[28] = biological target: Chorionic Gonadotropin (CG) (UniProt P01215); test: i-STAT sandwich, 0.4 mIU/L TSH spiked with CG, signal increase over TSH alone; capture: row antibody; detection conjugate: ME130
[29] = biological target: Follicle Stimulating Hormone (FSH) (UniProt P01215); test: i-STAT sandwich, 0.4 mIU/L TSH spiked with FSH, signal increase over TSH alone; capture: row antibody; detection conjugate: T25C
Luteinizing Hormone (LH) [30] = biological target: Luteinizing Hormone (LH) (UniProt P01215); test: i-STAT sandwich, 0.4 mIU/L TSH spiked with LH, signal increase over TSH alone; capture: row antibody; detection conjugate: ME130
[31] = biological target: Follicle Stimulating Hormone (FSH) (UniProt P01215); test: i-STAT sandwich, 0.4 mIU/L TSH spiked with FSH, signal increase over TSH alone; capture: row antibody; detection conjugate: ME130
Luteinizing Hormone (LH) [32] = biological target: Luteinizing Hormone (LH) (UniProt P01215); test: i-STAT LH-detecting cartridge (LH 5304 capture beads, 414B conjugate); polystyrene LH 5304 scavenger beads in the sample; signal without beads = 100%

Row | Substance | Kd [1] [nM] | Kd [2] [nM] | Kd (Luteinizing Hormone (LH) [3]) [nM] | Kd [4] [nM] | electrochemical current of sandwich immunoassay [5] [nA] | electrochemical current of sandwich immunoassay [7] [nA] | electrochemical current of sandwich immunoassay [8] [nA] | electrochemical current of sandwich immunoassay [9] [nA] | CG CR (%) [10] [%] | LH CR (%) (Luteinizing Hormone (LH) [11]) | relative fluorescence [12] | FSH CR (%) [13] [%] | relative fluorescence [14] | relative fluorescence [15] | relative fluorescence [16] | relative fluorescence [17] | relative fluorescence [18] | electrochemical current of sandwich immunoassay [19] [nA] | also measured
1 | signaling mouse monoclonal antibody Fitzgerald Cat#10-T25C | 40 | 300 | 35 | 0.08 | 40.9 | 49.7 | 0.68 | 0.83 | 13.7 | 9.89 | 0.92 | 6.25 | 0.97 | 0.95 | 1 | 0.97 | 0.97 | – | electrochemical current of sandwich immunoassay [6]: 0.82 nA
2 | TSH Antibody 544 (Abbott Diagnostics Division) | 210 | 1000 | 1000 | 1.31 | 0.11 | 7.98 | 34.9 | – | – | – | 0.92 | – | 0.89 | 0.96 | 0.71 | 0.72 | 1 | 22.4 | electrochemical current of sandwich immunoassay [6]: 25 nA; CG CR (%) [20]: 117%; LH CR (%) (Luteinizing Hormone (LH) [21]): 11.8%; FSH CR (%) [22]: 7.15%
3 | Seradyn anti-alpha-LH monoclonal antibody (Seradyn, Cat#MIT0414B) | 0.05 | 0.1 | 0.05 | 0.04 | 41.3 | 40.3 | – | 10.2 | 84.6 | 348 | 0.75 | 260 | 1 | 0.81 | 0.76 | 0.86 | 0.83 | – | CG CR (%) [23]: 39.2%; LH CR (%) (Luteinizing Hormone (LH) [24]): 467%; FSH CR (%) [25]: 219%
4 | TSH capture mouse monoclonal antibody Biospacific Cat#5409 SPTNE-5 | 500 | 1000 | 1000 | 0.1 | 15.2 | – | 53.6 | 1.41 | – | – | 0.9 | – | 0.88 | 1 | 0.78 | 0.78 | 0.93 | 34.6 | CG CR (%) [26]: 0.96%; LH CR (%) (Luteinizing Hormone (LH) [27]): 3.76%; CG CR (%) [28]: 0.78%; FSH CR (%) [29]: 0.65%; LH CR (%) (Luteinizing Hormone (LH) [30]): 10.1%; FSH CR (%) [31]: 2.43%
5 | Fitzgerald 10C-CR2151M4 mouse monoclonal antibody | 554 | 210 | 300 | 0.18 | – | 20.7 | 39.9 | 0 | – | – | 1 | – | 0.9 | 0.94 | 0.74 | 0.76 | 0.98 | 22.5 | –
6 | AbCAM ME-130 mouse monoclonal antibody | 45 | 70 | 54 | 0.04 | 50.5 | 54.7 | – | 10.8 | 11.8 | 11.1 | 0.77 | 3.9 | 0.99 | 0.82 | 0.88 | 1 | 0.82 | -0.1 | –
7 | Biospacific LH 5304 monoclonal antibody (mus beta-LH, Catalog #5304 SP-5) | – | – | – | – | – | – | – | – | – | – | – | – | – | – | – | – | – | – | signal remaining after scavenger beads (%) (Luteinizing Hormone (LH) [32]): 4%

Reference: patent US9199234
